From the RNAGym collection of RNA variant scans (doi:10.7554/elife.80360)

B1: HDV Ribozyme (parent)
chain: GGCCGGCAUGGUCCCAGCCUCCUCGCUGGCGCCGGCUGGGCAACAUUCCGAGGGGACCGUCCCCUCGGUAAUGGCGAAUGGGACCCA

Variants of: B1
Test: self-cleavage, relative activity (ratio to wild type); higher = more cleavage; co-transcriptional

Variant | self-cleavage
C57U U65G | 0.919
G5U C64U | 0.499
C26U C75G | 0.287
U60G U79A | 0.665
G1U G73A | 0.237
C41U C63A | 0.983
G35A U60G | 0.554
C3U G28C | 0.0449
A51U G67A | 0.78
G25C C57A | 0.166
U46G A78G | 0.443
C7U G34A | 0.0302
G29C C33U | 0.0941
C3U G6C | 0
G81A C86A | 0.805
G6A C63G | 0.601
U23C C64U | 0.786
C15G G17U | 0.243
C22U C32U | 0.65
C4U U69C | 0.755
C75G A77C | 0.128

Variant | self-cleavage
G31C G52U | 0.391
C22A A87C | 0.491
C49A U65C | 0.923
G39A G73A | 0.0801
G2C C26U | 0.124
G55C C63A | 1.06
U60C G74C | 0.217
U37A C63U | 0.339
C36A C64U | 0.237
G2U C7G | 0
A77U A78C | 0.332
C3G G35A | 1.08
C3U C26U | 0.65
U9C G68C | 0.89
C44A G55U | 0.698
U72G G73A | 0.707
C21G C62G | 0.0755
G67A A77G | 0.712
C19U A43G | 0.0545
C32G C33U | 0.115
A42C G59C | 0.397

Variant | self-cleavage
C18A C64A | 0.136
G31U C61A | 0.38
U46C C86U | 0.697
C13U G80A | 0.31
A70U C85A | 1.06
C41U U79A | 0.98
G17C C66G | 0.32
C49G C66G | 0.665
G81U C86A | 0.652
A8C C21G | 0.0594
U9C G35C | 0.519
U20A G82A | 0.0739
C18U G34C | 0.155
C4G C85G | 0.332
C44A A78C | 0.0811
C49A C63U | 0.817
U20A G38C | 0.119
C36A G80U | 0.0825
C7G C84A | 0.111
C21U C32U | 0.205
C24A C57G | 0.869

Variant | self-cleavage
G55C C57A | 1.06
C58G C86A | 0.727
C30U C75G | 0.0554
A43U G68U | 0.299
A51C G55A | 0.873
U46A G53A | 0.741
G59U G76C | 1.08
G74U G81C | 0.225
G11U A43U | 0.0893
C44G A71U | 0.962
C75U A77U | 0.374
U27A C41G | 0.858
G17U G53A | 0.641
C21G C30A | 0
C61G C84G | 0.386
C21U C33G | 0.104
U69G A70U | 0.95
C26U A70G | 0.831
C58A A87G | 1.11
A8U G50A | 0.739
